# Reference: article PMC4535883, “A Single-Strand Annealing Protein Clamps DNA to Detect and Secure Homology”
# T1: Redβ (single-strand annealing protein) (bacteriophage lambda, UniProt P03698 1-261)
# T1 sequence: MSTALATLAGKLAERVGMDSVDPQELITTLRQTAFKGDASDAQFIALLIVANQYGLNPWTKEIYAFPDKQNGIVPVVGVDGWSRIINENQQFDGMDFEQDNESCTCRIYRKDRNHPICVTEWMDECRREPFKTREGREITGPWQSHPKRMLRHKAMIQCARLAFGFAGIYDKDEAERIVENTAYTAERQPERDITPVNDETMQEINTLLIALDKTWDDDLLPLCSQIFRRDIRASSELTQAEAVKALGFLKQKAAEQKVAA
# B1: CD 44-mer pair ssDNACD(1)+(2) (dsDNA)
# DNA 1: GTAGAGTATAAGCACAGAGAGGATAGAGAACAATGGAGCGGGTGT
# DNA 2: ACACCCGCTCCATTGTTCTCTATCCTCTCTGTGCTTATACTCTAC
# B2: 123 bp high-force unzipping linker (dsDNA)
# DNA 1: TGTTTAGTATGAGTCGAAATTCTTACGGCGTGTCAGAGAGGCAATGGCTTGACTTGTGGTGGATCACAGTTTGTGAGTAACGGCAAGATGCGGTAAACACTGTAATGCGAGCTTCATTGACTCGGCTTAAAGTTCCTGGT
# DNA 2: TGACAGGAAACAGCACGCCAACCAGGAACTTTAAGCCGAGTCAATGAAGCTCGCATTACAGTGTTTACCGCATCTTGCCGTTACTCACAAACTGTGATCCACCACAAGTCAAGCCATTGCCTCTCTGACACGCCGTAAGAATTCGATAGGCAGCAGATTCTCTTTTCACCTTC
# modifications: 5' phosphate on overhang A
# B3: 25 bp high-force unzipping linker (dsDNA)
# DNA 1: TGTTTAGTATGAGTCGAAATTCTTACGGCGTGTCAGAGAGGC
# DNA 2: TGACAGGAAACAGCACGCCAGCCTCTCTGACACGCCGTAAGAATTCGATAGGCAGCAGATTCTCTTTTCACCTTC
# modifications: 5' phosphate on overhang A
# Columns and labels:
# [1] = molecular target: T1, Redβ (single-strand annealing protein); test: CD; filament formed by Redβ annealing; CD shift at 210-220 nm; Buffer composition not in the material; optical tweezers at 29.2 °C; conditions: protein: recombinant; tags: StrepII (stated for the purified protein used as western blot standard); blunt; strands annealed by Redβ
# [2] = molecular target: T1, Redβ (single-strand annealing protein); test: FCS/FCCS; per single binding site of Redβ monomer; global fit of isodesmic growth model; Buffer composition not in the material; optical tweezers at 29.2 °C; conditions: protein: recombinant; tags: StrepII (stated for the purified protein used as western blot standard); label: Atto 655 (5')
# [3] = molecular target: T1, Redβ (single-strand annealing protein); test: FCS/FCCS; effective KEpstein for 30-b ssDNA, calculated as Kd/21; Buffer composition not in the material; optical tweezers at 29.2 °C; conditions: protein: recombinant; tags: StrepII (stated for the purified protein used as western blot standard); label: Atto 655 (5')
# [4] = molecular target: T1, Redβ (single-strand annealing protein); test: FCCS; half of ssDNA bound; about 30% bound at 100 nM; Hill coefficient close to 1; Buffer composition not in the material; optical tweezers at 29.2 °C; conditions: protein: recombinant; tags: StrepII (stated for the purified protein used as western blot standard); label: Atto 655 (5')
# [5] = molecular target: T1, Redβ (single-strand annealing protein); test: optical tweezers; preassembled filament; unzipping forces >200 pN, step 10 ± 2 bp; Buffer composition not in the material; optical tweezers at 29.2 °C; conditions: protein: recombinant; tags: StrepII (stated for the purified protein used as western blot standard); 123 bp duplex, ssDNA spacers on both sides
# [6] = molecular target: T1, Redβ (single-strand annealing protein); test: optical tweezers; preassembled filament, 750 nM Redβ; >20% of traces >100 pN; Buffer composition not in the material; optical tweezers at 29.2 °C; conditions: protein: recombinant; tags: StrepII (stated for the purified protein used as western blot standard); 25 bp duplex, ssDNA spacers on both sides
binder,measurement,setting,value
B1,binding result,[1],binds
ATGCCTCTCACTCGTCATCTTGTTTAGTAT (ssDNA) [ssDNA FCS 30 b],Kd,[2],5 ± 0.2 µM
same,Kd,[3],~240 nM
same,apparent K (half saturation),[4],~300 nM
B2,binding result,[5],binds
B3,binding result,[6],binds
